Our source for the Ki, fold prolongation of clotting time, APTT assay in normal human plasma (fold prolongation and fold increase of clotting time over baseline, PT assay in rabbit plasma (fold increase over baseline values is patent publication US5834244.

For test [1], the target named is tissue factor-Factor VIIa complex (human Factor VIIa with recombinant human tissue factor 1-243) (human) (UniProt P08709). Nature of the test: chromogenic enzyme inhibition assay under equilibrium conditions; apparent Ki*.
For a further test, the target named is human Factor XIa (human) (UniProt P03951).
In test [2] the target is human plasma kallikrein (human) (UniProt P03952).
For test [3], the target named is rabbit TF-FVIIa in the PT assay (rabbit thromboplastin with rabbit plasma) (rabbit).
In test [4] the target is tissue factor-Factor VIIa complex (human Factor VIIa with recombinant human tissue factor 1-243) (human) (UniProt P08709). Nature of the test: chromogenic enzyme inhibition assay, FVIIa 10 nM, TF1-243 50 nM; apparent Ki* by fit to the tight-binding equation.
Test [5] has the same target. As to the kind of experiment: apparent Ki* for TF-FVIIa; method not told at this place.

For “APPI, Alzheimer's amyloid β-protein precursor inhibitor”, the Ki was 0.301 µM in test [1] and 0.3 µM in test [4]. Moreover, the fold prolongation of clotting time, APTT assay in normal human plasma (fold prolongation at 40 µM inhibitor) (with human Factor XIa (human); in test [2]) was 3.6 each time. For the same substance, the fold increase of clotting time over baseline, PT assay in rabbit plasma (fold increase over baseline at 40 µM) in test [3] is 1.4.

For first Kunitz domain of TFPI, in test [5], the Ki came out at 0.6 µM.
